The data set concerns HEK293 cells. Type of data set: cell-based, human. The following applies: luminescence from secreted Gluc in supernatant 24 hours after transfection of HEK293 cells; circular RNA encoding Gluc with the named IRES (UTR truncated to 675 nt).

B1: Carp picornavirus 1 (nucleic acid)
DNA: AGCTACAGGAAAGAGAGAGATAATCACAGCACATAAATACAACTACAGAAGAGAGCCTTTCCCTGAGCACTATTTACAGCAAACCACGCTGGGAAAAGTGGTAGCATGACCCACTTACGGGTTACTTAGTATAGGATTTTAATATCTTCGATTCTTTATTTTCTTTTCTTAACTAAGTTCGCCCGGACTTTATCCGTGTTTTATTTTAGTTTAAGCAAAATTGAGTAACTAAGTTTTTAACCTGCCAAATGGTGAGAAGTAACTCTGTGAAAATACCATTTGTGCATGAAATTGTCTTGAAAACTCTTAGGCTTTTGGGGGGTCCCACTGCTGTTTGGAGGACTATTGACAGACTCTATTGTAGTTGAGTAGTGACTAATGATAACGATTTGCGTATTACGCAATGGGCTGTACCCGTTAGATTTAGTATGCCGGGGGGAGGGGTCCCACTGGATTGCACTATGTAACCTGACAGGGCGTCTGCCGACGCACTACAATGAGGATAAGATCGGCTGTTTTTATTT
With B1, the Expression was found to be 1.13E+05.

B2: Falcon picornavirus (nucleic acid)
DNA: CGCTTGGAATAAGTTGAGAGGAATTATGCATGCTAGTTGTGTTTGTTTACAACTAATTGTTCTAATCCAAGTGAAGCTCTTCGCTTGGGGCGGCACGACACTTGCCGTAATTCTTCTACCGTCCCTCCACACCTTGTGGATGAAGGGCCGGATGTGTGGCCTCTGGCTAACCCCTCTCTCTGGGGTGATGCTACTGGATGTTTTACTCCTAGACCAAATCACATGAACTCCTCTTGATCCACTTCGGTGGGGCTATGAGCCTGCGGATTAATAGCTGGCGACAGCTACCCCAGGGGCCAAAAGCCACGGTGTTAGCAGCACCCTCATAGTCTGATGCCCAAGGGCTGATGTTGGGAGCTAGTAGTGTGTGTCTGGCCTATGTTTAGGACTTCTGGCCAAGCGCAGAGGAGTGGGGCTGAAGGATGCCCAGAAGGTACCCGTAGGTAACCTTAAGAGACTATGGATCTGATCTGGGGCCCCCTCACGTGGCTTTACCACGTGTTGGGGGTTAAAAAACGTCTAGGCCCCACCAGCCCACGGGAGTGGGCTTTCCCTTAAAAAGCCCAACAATATTTATGGTGACAATTCACTGTTTCTTCTTTGCAATTTTTGTATTCTTGGACTCCTTATTTTTTGTTTGCTTGATTTTAGTGGACATTCAGATTCAAATACAAA
For B2, the Expression worked out at 3.08E+06.

B3: Equine rhinitis B virus 1 (nucleic acid)
DNA: CGACAGGCACAGGTCGCTCCGAGTTCTAGTAGTGTGGGAACTTGTTACTACTGATGAAACGAGGTAGTGACACTCAGTACCTGCGAACGAGGTCGGGGCCCTCCCTTCTTCCTTCACCCAACTTTCACTTTTCGTTCCACTTTAGCAGGGGTCTTCTTTCTATCCCCCTGGCGGCATTGGAACTAGCCGTCGCGTCTTAACGCGCAGCCCTGAAGGCCCCACACCTTGTGGATCTTGCCGTGGGTATGTTTCTGGCATGTGTTTCTCAAGCCTGCAACCGAAGCCGAACAGCCACATGAACAGTTTGAGCGTGGTAGCGCTGTGTGAGTTGGCGGTGGATCCCCCTCGTGGTAACACGAGCCCCCGTGGCCAAAAGCCCAGTGTTTACAGCACCTCTCACATCCAGGACGACCCCATCCTGGCGCTCACTCTTAGTAGTATGGCTTAGTACGCATTAGGTGGTAAGCCGAGCTCTCCCTCGGCCTTGTTCTGAATGCACACATGTCTAGGGGCTAAGGATGTCCTACAGGTACCCGCACGTAACCTTCAGAGAGTGCGGATCTGAGTAGGAGACCGTGGTGCACTGCTTTACAGATGCAGCCCGGTTTAAAAAGCGTCTATGCCCCTACAGGGTAGCGGTGGGCCGCGCCCTTTCCTTTTAAAACTACTTGTTCT
Take B3: the Expression was found to be 1.01E+05.

B4: Dolphin morbillivirus (nucleic acid, listed as Morbillivirus sp.)
DNA: ACCAGACAAAGCTGGCTAGGGGTAGAATAACAGATAATGATAAATTATCATACTTAGGATTAATGATCCTATCAATTGGCACAGGATTTGGATAAAGGTTCACAGTC
modifications: chemistry not fully specified; the letters are possibly those of the target site
Turning to B4, the Expression turned out to be 1.22E+05.

B5: Enterovirus sp. isolate CPML (nucleic acid, listed as Enterovirus sp.)
DNA: ACTCTGGTATCACGGTACCTTTGCACGCCTATTTTATACCCCTTCCCCATCGTAACTTAGAAGCAACAAACAAACTGCCCAATAGCAGCACAACACCCAGTTGTGTTAGGGGCAAGCACTTCTGTTTCCCCGGAAGGGTCTGACGGTATGCTGTACCCACGGCAGAAGTATGACCTACCGTTAACCGGCCATGTACTTCGAGAAGCCTAGTACCATTATGAAGGTTGATTGATGTTACGCTCCCCAGCAACCCCAGCTGGTAGTTCTGGTCGATGAGTCTCGGCATTCCCCACGGGCGACCGTGGCCGAGGCTGCGTTGGCGGCCAGCCTACACCATACGGTGTAGGACGTCAAGATACTGACATGGTGTGAAGAGCCTATTGAGCTACGTGGTAGTCCTCCGGCCCCTGAATGCGGCTAATCCTAACTCCGGAGCATCCGCCAGTAAGCCCACTGGAAGGGTGTCGTAATGCGAAAGTCTGGAGCGGAACCGACTACTTTGGGTGTCCGTGTTTCCTGTTTTACTTATTGTTTGGCTGCTTATGGTGACAACTTATAGTTATCATCATAAGCTACTTGGTCTTGCCAACCGGAGAATTATTTGGTTATTTGTTGGTTTCATAAACCTACAGTCGTATTTTCCTGTCTTATTAATTGTTCTCAAAATTAACAACA
For B5, the Expression was 6.83E+07.

B6: Dianke virus (nucleic acid)
DNA: TGTTTTCAACCATAATACTACTACTACAAGTATAAAACCCCGTCCGTCTGTCGGAGACGCTAAACTCTGACCACCAATCTAGCCACATCAGTTGCTTAAAGAACCTCTTGAGACACTCTCCCACTTAACATCTTTTAGGAATCTTCGATGCTACAACAACTTGGCTAGTGAACAATAAATCCGTACAATTCACAGTTGTAAGAGGCCATAGGTCCAGACTTTGAAAGGTTTGTTTCTATTGTTACAAATACTTAGATTAACAGAGGCTATTTAATAGTGCTCATCACGTTAACAGAGTAACCTTGTGCAATAGTATGAGCTTGTTGTAAAACGTCTTGATACGACACC
Take B6: the Expression is listed as 1.35E+05.

B7: Guereza hepacivirus (nucleic acid, listed as Hepacivirus sp.)
DNA: CACTCAATACTACACTCCGCATTTGGGGAGAAGCGCTGGCGTTCGCGGAACCGCGTTAACCATACGCGTAGTACGAGTGCGACAGACCCCGGTGCTACTGGTGGTAGCGAGACACGAGCCGAAGTCTGTGGGGGGAACTCCACTTAGAGGGCATGCCCGGGCGTAGGCTTCTGAGTTGGGATGGGCCCCAACTTGGCCCCTGAGTGGGGGGGTGTTACGACCTGATAGGGTGCGGGCTGGCGCCTACCACTTTCCAGTCGTACATGAGTC
The molecule B7 returned an Expression of 1.38E+05.

B8: Equine arteritis virus (nucleic acid)
DNA: GCTCGAAGTGTGTATGGTGCCATATACGGCTCACCACCATATACACTGCAAGAATTACTATTCTTGTGGGCCCCTCTCGGTAAATCCTAGAGGGCTTTCCTCTCGTTATTGCGAGATTCGTCGTTAGATAACGGCAAGTTCCCTTTCTTACTATCCTATTTTCATCTTGTGGCTTGACGGGTCACTGCCATCGTCGTCGATCTCTATCAACTACCCTTGCGACT
Consider B8, for which the Expression is 1.89E+05.

B9: Megirivirus A LY (nucleic acid)
DNA: TTCGGGACACTGGATGGGCGACTTGGTGGGGCTGCCACTCTATCTTGACCTTTCGTTACTGACTTTCGGATCTCTGACTCCTCCTTGTCTCTTGCGTTTGGTCCACGGACGGACTAATTGGAATGTTTACTGGCTAAGCCTCGTTCTGAAATACCCTAGCCAATGGGTTGTAGTAGGATCCTGGTGTTTCCATTAAACCTCTTCCGACCATAGTAGCTAGAGTTATGGCTGTGTAGGATGTGGGTAAGACCGCTTTTTGCGTATCTCCCACAAGACACCGGATTATGGATGTGTCCGCTGGATAAGGCTCGAAACCTCCCAACTGAAGGTGGTGCTGAAATATTGCAAGCCTAGGTTGTGTAGAGGCAAGTAGATGCCTGCCGCGACATTCGTCTTCCGCCCTTTTGGGTTAGTAGTGTACCTACATGGACGTGGGGCTGGGAATCCCCACCTTGCATAACACTGGTTGATAGACCTGCGGCTGGTCAAGTTACTATGGTATAACCAGTTGAAATGGCT
B9 showed an Expression of 1.80E+06.

B10: Enterovirus AN12 (nucleic acid, listed as Enterovirus sp.)
DNA: TACCGCTGCACCAGTGAGCTGGTACGCTAGTACCTTCGCACGGAGTAGATGGCATCCCCCACCCCGTAACTTAGAAGCAAAGTACACATCTGGCCAATAGTGGCGCTGCATCCAGCCGCGCAACGGTCAAGCACTTCTGTTTCCCCGGTCCGCAAGGGTCGTTATCCGCCCAGTCCACTACGGAAAGCCTACTAACCATTGAAGCTATCGAGAGGTTGCGCTCGGCCACGACCCCGGTGGTAGCTCTGAGTGATGGGGCTCGCAAACACCCCCGTGGTAACACGGATGCTTGCCCGCGCGTGCACTCGGGTTCAGCCTATTGGTTGTTCACCTCAACATAGTGTAAATGGCCAAGAGCCTACTGTGCTGGATTGGTTTTCCTCCGGAGCCGTGAATGCTGCTAATCCCAACCTCCGAGCGTGTGCGCACAATCCAGTGTTGCTACGTCGTAACGCGTAAGTTGGAGGCGGAACAGACTACTTTCGGTACTCCGTGTTTCTTTTGTTTTATTTTGAATTTTATGGTGACAATTGCTGAGATTTGCGAATTAGCGACTCTACCGCTGAACATTGCCCTGTACTACCTAATCGCATTTCACAAAACCTCAGAGATACCAAGCTCTTACATTGATCTGCTTGTTTTCCTGAATCTCAAATATAAATTGGAACAAGCAAA
B10: the Expression stood at 3.87E+06.

B11: Equine rhinitis A virus (nucleic acid)
DNA: AAGGGTTACTGCTCGTAATGAGAGCACATGACATTTTGCCAAGATTTCCTGGCAATTGTCACGGGAGAGAGGAGCCCGTTCTCGGGCACTTTTCTCTCAAACAATGTTGGCGCGCCTCGGCGCGCCCCCCCTTTTTCAGCCCCCTGTCATTGACTGGTCGAAGGCGCTCGCAATAAGACTGGTCGTTGCTTGGCTTTTCTATTGTTTCAGGCTTTAGCGCGCCCTTGCGCGGCGGGCCGTCAAGCCCGTGTGCTGTACAGCACCAGGTAACCGGACAGCGGCTTGCTGGATTTTCCCGGTGCCATTGCTCTGGATGGTGTCACCAAGCTGGCAGATGCGGAGTGAACCTTACGAAGCGACACACCTGTGGTAGCGCTGCCCAGAAGGGAGCGGAGCTCCCCCGCCGCGAGGCGGTCCTCTCTGGCCAAAAGCCCAGCGTTAATAGCGCCTTCTGGGATGCAGGAACCCCACCTGCCAGGTGTGAAGTGGACTAAGTGGATCTCCAATTTGGCCTGTTCTGAACTACACCATCTACTGCTGTGAAGAATGTCCTGAAGGCAAGCTGGTTACAGCCCTGATCAGGAGCCCCGCTCGTGACTCTCGATCGACGCGGGGTCAAAAACTGTCTAAGCAGCAGCAGAAACGCGGGAGCGTTTCTTTTTCCTCATTTGTTTC
modifications: Equine rhinitis A virus
Molecule B11 had an Expression of 3.73E+05.
